Data: patent publication US20260097098A1

Biological target: human VEGF165 (non-biotinylated) (human) (UniProt P15692)
Assay: cell-based or functional assay

Chain of human VEGF165 (non-biotinylated) (human) (P15692 other isoform, or with tags, fused parts or gaps): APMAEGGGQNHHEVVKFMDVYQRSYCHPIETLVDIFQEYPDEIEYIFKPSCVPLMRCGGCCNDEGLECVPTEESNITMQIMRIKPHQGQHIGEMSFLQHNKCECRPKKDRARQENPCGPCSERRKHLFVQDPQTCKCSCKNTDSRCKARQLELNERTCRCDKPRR

Substance: EYLEA (aflibercept) (Fc fusion)
- maximal inhibition of VEGF-stimulated proliferation: < 80%
